Target: T1, CsARF5-HIS (Cucumis sativus, UniProt A0A0A0LE69 1-948)
T1 sequence: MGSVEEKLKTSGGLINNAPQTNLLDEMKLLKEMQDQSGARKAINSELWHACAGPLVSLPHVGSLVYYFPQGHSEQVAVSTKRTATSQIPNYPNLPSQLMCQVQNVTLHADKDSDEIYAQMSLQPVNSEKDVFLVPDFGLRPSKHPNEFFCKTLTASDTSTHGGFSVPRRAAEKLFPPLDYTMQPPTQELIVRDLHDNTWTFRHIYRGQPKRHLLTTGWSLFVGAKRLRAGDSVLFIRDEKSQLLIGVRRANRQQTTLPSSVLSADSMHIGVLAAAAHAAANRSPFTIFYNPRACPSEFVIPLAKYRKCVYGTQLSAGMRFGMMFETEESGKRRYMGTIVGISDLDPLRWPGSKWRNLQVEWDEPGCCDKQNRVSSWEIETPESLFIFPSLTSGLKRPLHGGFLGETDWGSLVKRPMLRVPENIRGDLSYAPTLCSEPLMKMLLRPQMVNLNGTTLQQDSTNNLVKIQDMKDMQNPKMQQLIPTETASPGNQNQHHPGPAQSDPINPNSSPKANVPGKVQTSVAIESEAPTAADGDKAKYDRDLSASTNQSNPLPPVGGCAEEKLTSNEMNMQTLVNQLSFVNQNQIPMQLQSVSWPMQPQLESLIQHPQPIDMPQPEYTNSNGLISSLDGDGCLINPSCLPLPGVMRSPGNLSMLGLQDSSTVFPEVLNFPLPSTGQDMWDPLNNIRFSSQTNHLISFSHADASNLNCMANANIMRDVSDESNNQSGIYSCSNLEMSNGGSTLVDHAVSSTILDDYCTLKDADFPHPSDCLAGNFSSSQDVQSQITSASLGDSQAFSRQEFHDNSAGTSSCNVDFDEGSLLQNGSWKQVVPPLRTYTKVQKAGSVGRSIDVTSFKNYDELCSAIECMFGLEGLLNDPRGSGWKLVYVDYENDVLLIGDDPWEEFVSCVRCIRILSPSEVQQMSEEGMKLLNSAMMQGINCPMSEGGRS
Test: EMSA; EMSA: protein and probe incubated at 24 °C for 30 min, nondenaturing acrylamide gel; buffer, salt and pH not stated
Conditions: protein: recombinant; tags: His; label: biotin

B1: CsDREB3 promoter probe (dsDNA)
DNA 1: ATCGGGGTAAGAGACATTAAGAAACA
DNA 2: TGTTTCTTAATGTCTCTTACCCCGAT
B1: binds.

Source: article PMC8706816, “Hydrogen Sulfide Improves the Cold Stress Resistance through the CsARF5-CsDREB3 Module in Cucumber”
